How the values were obtained:
pro-cathepsin D [1] = molecular target: pro-cathepsin D (UniProt P07339); test: MST
pro-cathepsin D [2] = molecular target: pro-cathepsin D (UniProt P07339)
pro-cathepsin D [3] = molecular target: pro-cathepsin D (UniProt P07339); remark: listed apart in the source

Chain of pro-cathepsin D (P07339 21-412): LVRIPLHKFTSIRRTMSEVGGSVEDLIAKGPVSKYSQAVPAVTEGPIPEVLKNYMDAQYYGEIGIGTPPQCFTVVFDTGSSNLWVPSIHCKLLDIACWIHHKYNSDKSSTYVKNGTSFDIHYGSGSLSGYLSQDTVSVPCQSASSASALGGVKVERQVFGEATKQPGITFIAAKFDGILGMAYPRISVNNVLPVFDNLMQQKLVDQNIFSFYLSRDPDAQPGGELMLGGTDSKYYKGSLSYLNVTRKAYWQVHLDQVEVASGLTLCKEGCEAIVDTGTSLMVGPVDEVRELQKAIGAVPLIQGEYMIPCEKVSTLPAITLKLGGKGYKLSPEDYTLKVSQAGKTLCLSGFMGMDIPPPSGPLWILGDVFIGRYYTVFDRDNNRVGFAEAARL

Kd (pro-cathepsin D [1]) [µM] | DSF - ΔTm of proCTSD (1 μM proCTSD with 2 μM peptide BAC, pH 7.4) (pro-cathepsin D [2]) [°C] | Normalized Vmax of CTSD activity (20 nM proCTSD, 65 nM peptide BAC, pH 3.5) (pro-cathepsin D [2]) | DSF - Tm reduction of proCTSD with CDE at a 1:1 molar ratio (pro-cathepsin D [3]) [°C] | DSF - ΔTm of proCTSD with peptide CDE, pH 7.4 (pro-cathepsin D [2]) [°C] | Normalized Vmax of CTSD activity (20 nM proCTSD, 65 nM peptide CDE, pH 3.5) (pro-cathepsin D [2]) | Substance
2.8 | -3.38 | 1.89 |  |  |  | multi-granulin domain peptide BAC (domain or fragment)
0.13 |  |  | 2.75 | -2.78 | 1.84 | multi-granulin domain peptide CDE (domain or fragment)
